According to patent US20080063717A1:

Tests used:
[1] = target: human NKp30 receptor (human); assay: cell-based or functional assay
[2] = target: NKp46 receptor (human) (UniProt O76036); assay: cell-based or functional assay
UniProt O76036, sequence (O76036 22-304): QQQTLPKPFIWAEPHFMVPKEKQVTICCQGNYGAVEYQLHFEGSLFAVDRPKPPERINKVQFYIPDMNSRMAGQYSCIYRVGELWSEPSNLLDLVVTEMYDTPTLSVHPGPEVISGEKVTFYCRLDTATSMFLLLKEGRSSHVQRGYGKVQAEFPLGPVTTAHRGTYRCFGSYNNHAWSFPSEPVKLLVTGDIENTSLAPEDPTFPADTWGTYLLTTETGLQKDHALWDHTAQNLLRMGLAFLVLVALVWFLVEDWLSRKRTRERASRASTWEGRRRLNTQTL

human NKp30 receptor (human), sequence (chain, as listed by the source limits assumed): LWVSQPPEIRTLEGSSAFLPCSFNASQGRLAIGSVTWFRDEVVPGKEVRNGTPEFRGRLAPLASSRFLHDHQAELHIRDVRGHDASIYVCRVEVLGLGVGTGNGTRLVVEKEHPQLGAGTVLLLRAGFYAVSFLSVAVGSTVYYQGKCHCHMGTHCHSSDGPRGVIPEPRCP

In the case of AZ20 (anti-NKp30) monoclonal antibody, the cells in the culture at day 6 that underwent more than 5 divisions (CFSE) [1] is reported as greater than 80%, the cells remaining with fluorescence intensity equivalent to resting cells (no division), CFSE, day 6 [1] is reported as 5% and the dose to obtain 50% of maximum effect (NK cell proliferation from PBMC, titration of antibody with IL-2 and IL-15, 3 donors) [1] is reported as less than 0.1 µg/mL. The plateau of the antibody's effect on NK cell proliferation (titration with IL-2 and IL-15, 3 donors) [1] was 1 µg/mL.
Work on Bab281 (anti-NKp46) monoclonal antibody yielded a cells remaining with fluorescence intensity equivalent to resting cells (no division), CFSE, day 6 [2] of 11%.
